From US20240043489A1, “Cytokine Prodrugs Comprising a Cleavable Linker” (Trutino Biosciences Inc., priority 2020, published 2024)
Changes are numbered by the printed parent chain. Numbers in names are those of the source. Where “and” joins values, the source holds several entries; their conditions need not be identical. Identical values can stand only once. Entries after “also recorded” stand apart in the source; their conditions may differ. Like-named read-outs stand apart in the source and are kept apart here. One block for each molecule: values may come before it.

Experiments:
[1] = target: fibronectin (Homo sapiens, UniProt P02751); conditions: Note 1, cited from earlier work
Chain of fibronectin (P02751 32-2477, species assumed): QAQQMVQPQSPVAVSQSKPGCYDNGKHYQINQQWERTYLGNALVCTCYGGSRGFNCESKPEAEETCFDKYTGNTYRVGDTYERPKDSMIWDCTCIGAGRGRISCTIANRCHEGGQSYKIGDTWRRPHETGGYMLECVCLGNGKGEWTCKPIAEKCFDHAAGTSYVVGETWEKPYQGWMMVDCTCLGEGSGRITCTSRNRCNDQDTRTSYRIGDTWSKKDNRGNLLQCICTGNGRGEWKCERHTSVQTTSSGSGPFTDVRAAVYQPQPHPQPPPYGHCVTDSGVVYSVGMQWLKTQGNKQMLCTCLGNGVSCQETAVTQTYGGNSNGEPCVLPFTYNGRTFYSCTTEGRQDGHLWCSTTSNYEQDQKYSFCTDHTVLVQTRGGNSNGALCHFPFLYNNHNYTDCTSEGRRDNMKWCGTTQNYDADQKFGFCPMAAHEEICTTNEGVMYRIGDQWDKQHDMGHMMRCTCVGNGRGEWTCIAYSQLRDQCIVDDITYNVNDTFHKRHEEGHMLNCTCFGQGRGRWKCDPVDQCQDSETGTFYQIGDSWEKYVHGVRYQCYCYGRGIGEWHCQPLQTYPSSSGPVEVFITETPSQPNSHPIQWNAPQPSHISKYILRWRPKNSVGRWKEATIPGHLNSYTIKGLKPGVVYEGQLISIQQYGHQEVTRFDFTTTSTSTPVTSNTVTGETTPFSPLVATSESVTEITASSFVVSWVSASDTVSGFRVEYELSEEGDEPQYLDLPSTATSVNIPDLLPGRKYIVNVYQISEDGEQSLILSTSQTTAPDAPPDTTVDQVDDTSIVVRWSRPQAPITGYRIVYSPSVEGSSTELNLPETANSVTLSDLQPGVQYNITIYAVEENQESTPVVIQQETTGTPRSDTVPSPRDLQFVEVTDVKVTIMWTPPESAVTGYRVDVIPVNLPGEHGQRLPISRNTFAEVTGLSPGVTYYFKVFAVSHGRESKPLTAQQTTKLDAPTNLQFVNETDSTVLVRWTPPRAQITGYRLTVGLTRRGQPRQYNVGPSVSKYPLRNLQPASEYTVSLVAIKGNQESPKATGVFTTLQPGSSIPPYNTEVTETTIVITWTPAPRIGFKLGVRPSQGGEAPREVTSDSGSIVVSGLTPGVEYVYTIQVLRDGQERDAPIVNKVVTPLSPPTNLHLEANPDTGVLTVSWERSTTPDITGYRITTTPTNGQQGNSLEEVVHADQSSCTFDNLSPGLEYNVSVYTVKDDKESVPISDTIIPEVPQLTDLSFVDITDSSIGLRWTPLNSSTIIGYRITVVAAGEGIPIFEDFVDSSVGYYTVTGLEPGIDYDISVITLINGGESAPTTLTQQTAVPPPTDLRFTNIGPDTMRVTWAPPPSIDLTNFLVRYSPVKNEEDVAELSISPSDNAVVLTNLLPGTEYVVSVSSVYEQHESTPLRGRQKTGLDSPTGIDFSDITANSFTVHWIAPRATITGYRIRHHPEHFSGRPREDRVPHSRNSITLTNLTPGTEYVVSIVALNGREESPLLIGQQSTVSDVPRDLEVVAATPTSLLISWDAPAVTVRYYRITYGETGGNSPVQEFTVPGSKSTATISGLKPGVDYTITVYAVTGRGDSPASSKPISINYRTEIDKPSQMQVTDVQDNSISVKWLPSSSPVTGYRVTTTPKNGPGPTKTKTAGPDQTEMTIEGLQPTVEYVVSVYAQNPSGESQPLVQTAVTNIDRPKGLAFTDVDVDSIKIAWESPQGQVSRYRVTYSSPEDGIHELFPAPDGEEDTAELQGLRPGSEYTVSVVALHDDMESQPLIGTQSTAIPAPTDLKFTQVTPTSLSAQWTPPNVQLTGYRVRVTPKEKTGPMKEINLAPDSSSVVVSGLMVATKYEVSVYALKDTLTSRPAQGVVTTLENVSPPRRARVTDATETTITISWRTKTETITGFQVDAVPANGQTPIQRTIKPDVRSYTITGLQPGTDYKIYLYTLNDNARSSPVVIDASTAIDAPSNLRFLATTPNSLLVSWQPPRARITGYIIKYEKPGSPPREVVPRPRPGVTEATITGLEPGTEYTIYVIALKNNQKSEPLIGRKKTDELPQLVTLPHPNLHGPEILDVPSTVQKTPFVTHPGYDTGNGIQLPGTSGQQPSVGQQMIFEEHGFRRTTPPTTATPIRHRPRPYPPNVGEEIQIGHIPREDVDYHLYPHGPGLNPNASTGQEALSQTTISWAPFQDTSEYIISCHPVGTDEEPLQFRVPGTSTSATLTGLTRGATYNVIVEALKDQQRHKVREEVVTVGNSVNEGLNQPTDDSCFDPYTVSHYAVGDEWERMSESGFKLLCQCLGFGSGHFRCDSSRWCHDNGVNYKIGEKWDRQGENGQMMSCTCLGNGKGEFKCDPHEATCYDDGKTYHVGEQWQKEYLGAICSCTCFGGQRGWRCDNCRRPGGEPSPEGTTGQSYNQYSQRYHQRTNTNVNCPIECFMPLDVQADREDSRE

[2] = test system: HEK-Blue™ IL-2 cells; experiment: HEK-Blue IL2 reporter assay (SEAP, OD630); assay type: cell-based; conditions: Table 5C
Method: Recombinant MMP9 and/or MMP2 (R&D Systems) was first activated with p-aminophenylmercuric acetate and this activated protease or equivalent amount of activating solution without the protease was used to digest or mock digest the fusion protein for 1 hr, 2 hr, 4 hr and overnight (18-22 hr) at 37 C. Cleavage assays are set up in TCNB buffer: 50 mM Tris, 10 mM CaCl2), 150 mM NaCl, 0.05% Brij-35 (w/v), pH 7.5. Digested protein was aliquoted and stored at −80° C. prior to testing. Aliquots of digests were subsequently analyzed by SDS-PAGE followed by Western blotting to evaluate the extent of cleavage. Digests were also assessed in functional assays such as CTLL-2 proliferation and HEK-Blue Interleukin reporter assays. As shown in FIGS. 2A-E, essentially complete cleavage by MMP9 protease of the fusion proteins with functional site is seen after overnight incubation. In contrast, proteins containing a scrambled MMP cleavage site are not cut (FIG. 2E). HEK-Blue™ IL-2 cells are specifically designed to monitor the activation of the JAK-STAT pathway induced by IL-2. Indeed, stimulation with human or murine IL-2 triggers the JAK/STAT5 pathway and induces secreted embryonic alkaline phosphatase (SEAP) production. SEAP can be readily monitored when using QUANTI-Blue™, a SEAP detection medium. These cells respond to human and murine IL-2. For the HEK Blue assay, untreated and digested samples are titrated and added to 50 000 HEK Blue cells per well in 200 ul medium in a 96-well plate and incubated at 37C in 5% CO2 for 20-24 hr. The following day, levels of SEAP are measured by adding 20 uL of cell supernatant to QuantiBlue reagent, followed by 1-3 h incubation at 37C and reading absorbance at 630 nm. FIGS. 3C-J, 3Q-Y and Table 5B-5C show results obtained from IL2 fusion proteins tested in HEK Blue IL2 assay.

[3] = target: heparin; experiment: IL-2 fusion protein plate binding assay to Heparin-BSA conjugate
Method: 96-well plates were coated with 25 ug/mL of Heparin-BSA conjugate (provided by Dr. Mueller, Boerhinger Ingelheim) or control BSA for 18-22 h at room temperature on shaker (350 rpm). After washing, wells are blocked with PBS-0.05% Tween 20/1% BSA for 90 min, then fusion proteins are titrated in 1% BSA/PBS-0.05% Tween 20 pH 7.5 and/or pH 6 and added for 2 hr at room temperature with shaking. After washing, an anti-mouse IL-2 biotin-labelled detection antibody (JES6-5H4, ThermoFisher) is added and binding is detected using Ultra Strepavidin HIRP (ThermoFisher). The plate was developed by adding the chromogenic tetramethylbenzidine substrate (Ultra TMB, ThermoFisher). The reaction is stopped by addition of 0.5M H2SO4 and the absorbance is read at 450-650 nm.

[4] = Full-length drug levels in serum by ELISA; assay type: in vivo, mice; conditions: 24 hrs after dosing; for drug levels in serum relative to Construct B: 10 mg/kg cohort
Method: (§1) We developed an ELISA assay to detect and quantify fusion proteins comprising IL-2 and IL-2Rα moieties. Wells of a 96-well plate are coated overnight with 100 uL of a rat anti-mouse IL-2 monoclonal antibody (JES6-1A12; ThermoFisher) at […] in PBS. After washing, wells are blocked with TBS/0.05% Tween 20/1% BSA, then fusion proteins and/or unknown biological samples are added for 1 hr at room temperature. After washing, an anti-mouse IL-2Rα biotin-labelled detection antibody (BAF2438, R&D systems) is added and binding is detected using Ultra Strepavidin HRP (ThermoFisher). The ELISA plate was developed by adding the chromogenic tetramethylbenzidine substrate (Ultra TMB, ThermoFisher). The reaction is stopped by addition of 0.5M H2SO4 and the absorbance is read at 450-650 nm.
Additional serum samples collected at Day 17 (Construct B 20 mg/kg) and Day 21 (Construct Y 20 mg/kg), 4 days and 8 days respectively after the last IV injection, were assayed for full-length IL-2 fusion drug.

[5] = Drug and IL-2 levels in B16F10 tumor lysates by ELISA; assay type: in vivo, mice; conditions: for IL-2 levels in treated tumors compared to Construct B treated tumors: free IL-2 calculated by subtraction, 24 h after last dose
Method: as §1
We developed a second ELISA assay to detect and quantify mouse IL-2 and/or fusion proteins comprising an IL-2 moiety. Wells of a 96-well plate are coated overnight with 100 uL of a rat anti-mouse IL-2 monoclonal antibody (JES6-1A12; ThermoFisher) at […] in PBS. After washing, wells are blocked with TBS/0.05% Tween 20/1% BSA, then fusion proteins and/or unknown biological samples are added for 1 hr at room temperature. After washing, an anti-mouse IL-2 biotin-labelled detection antibody (JES6-5H4, ThermoFisher) is added and binding is detected using Ultra Strepavidin HRP (ThermoFisher). The ELISA plate was developed by adding the chromogenic tetramethylbenzidine substrate (Ultra TMB, ThermoFisher). The reaction is stopped by addition of 0.5M H2SO4 and the absorbance is read at 450-650 nm. This assay is able to simultaneously detect both free mouse IL-2 as well as mouse IL-2 in the context of pro-drug fusion proteins.
We quantified levels of full-length IL2-IL2Ra fusion proteins and IL-2 in tumor samples collected during pre-clinical efficacy studies comparing Construct B and retention linker IL-2 fusion drugs (see example 17).
Tumors (n=3 per group) were collected 24 h after the last dose injection, flash frozen and stored at −80C until further processing. Tumor lysates were generated using tissue extraction reagent (ThermoFisher) supplemented with protease and phosphatase inhibitors and standard techniques and protein concentrations were determined using the BCA assay (Pierce).
Lysates were tested with in-house ELISAs to measure full-length IL-2 fusion proteins (IL-2 capture/IL-2Rα detection) and IL-2 fusion proteins+free IL-2 (IL-2 capture/IL-2 detection). Free IL-2 levels in tumor were calculated by subtracting drug levels from the drug+IL-2 data set. Results were normalized to 1 mg of tumor lysate and mean values are shown in FIG. 15C-H. Levels of Construct CC (20 mg/kg dose) in tumor are roughly 3-fold higher compared to Construct B levels, despite Construct B being dosed at 40 mg/kg (FIG. C). […] Likewise, IL-2 levels in Construct CC, Construct GG and Construct II treated tumors are elevated compared to Construct B treated tumors (FIG. 15E/H). This implies that next generation retention linker technology is able to retain in TME both full-length drug and released IL-2 post-cleavage.

[6] = test system: B16F10 melanoma; experiment: In vivo efficacy of retention linker IL-2 drugs in B16F10 syngeneic model (Example 17); design: species or system mice; conditions: for TGI (%) D 15: 10 mg/kg IV Q3D, 5 doses; for TGI (%) D 20: 10 mg/kg, 7 days following the fifth dose
Method: (§2) In a first efficacy study, C57BL/6 mice were subcutaneously inoculated with B16F10 melanoma cells and when the average tumor volume reached on average 70-90 mm^3, animals were randomized into 5 groups based on tumor volumes (n=6 mice per treatment group). Mice were dosed intravenously every 3 days (Q3D) for a total of 5 doses according to following design:
as §2, with “second” for “first”, “study in the same model,” for “study,”
On Day 20, mice received an additional dose of drug, animals were sacrificed 24 hrs later and tissues and blood (processed to serum) were collected and stored at −80C for further testing. […] This is most likely due to the higher levels of both circulating drugs in serum and resident drug in TME, which can exert prolonged anti-tumor activity even after an extended dosing holiday.

[7] = test system: collagen; experiment: IL-2 fusion protein collagen-agarose pulldown (immunoblot quantitation); assay type: binding; conditions: for Bound: blot quantitation, collagen-agarose bound fraction; for Normalized: bound fraction relative to Construct B (fold); for Bound (% input): fraction bound to collagen-agarose; for binding to collagen-agarose beads vs control agarose beads: pulldown 18-22 h at 4C
Method: To test binding to collagen, a pulldown assay using agarose cross-linked to collagen (Sigma) was performed. IL-2 fusion proteins were incubated with collagen-agarose or control agarose beads for 18-22 h at 4C with gentle rotation in 1% BSA/PBS-0.05% Tween 20. After washing, proteins bound to the beads were eluted by resuspending beads in SDS sample buffer (Life Technologies). Bound proteins were then separated by SDS-PAGE on 4-12% BisTris gradient gel followed by immunoblotting with goat anti-mouse IL-2 polyclonal antibody (AF-402-NA; R&D systems). Donkey Anti-goat RP-conjugated antibody was used for detection (Jackson Immuno Research, West Grove, PA) and the blot was developed using the SuperSignal West Femto Maximum sensitivity detection reagent (ThermoFisher) following the manufacturer's recommendations.

[8] = pH-sensitive sequences derived from thrombospondin
[9] = cleaved with MMP9, read-out: +MMP EC50

Molecule: 655 (KRFKQDGGWSHWSP) [Construct 655]
- affinity (Binds to Fibronectin) [1, 8]: derived from thrombospondin (medium affinity)

Molecule: 680 (QFGGHNSVDFEEDT) [Construct 680]
- affinity (Binds to Fibronectin) ([1]; FAB D3 fragments): non-binding control

Molecule: 654 (KRFKQDGGWSHWSPWSS) [Construct 654]
- affinity (Binds to Fibronectin) [1, 8]: derived from thrombospondin (low affinity)

Molecule: 656 (GGWSHWSPWSS) [Construct 656]
- affinity (Binds to Fibronectin) [1, 8]: derived from thrombospondin (medium affinity)

- EC50 ([3]; acidic pH): 10 nM
B1: Construct CC: SEQ ID NO 813: m IL2-2x(GHHPH)-MMPcs1-2x(G4S)-mIL2Ra(1-215)-mu IgG1 Fc (protein)
chain: APTSSSTSSSTAEAQQQQQQQQQQQQHLEQLLMDLQELLSRMENYRNLKLPRMLTFKFYLPKQATELKDLQCLEDELGPLRHVLDLTQSKSFQLEDAENFISNIRVTVVKLKGSDNTFECQFDDESATVVDFLRRWIAFCQSIISTSPQGHHPHGHHPHGPLGVRGGGGGSGGGGSELCLYDPPEVPNATFKALSYKNGTILNCECKRGFRRLKELVYMRCLGNSWSSNCQCTSNSHDKSRKQVTAQLEHQKEQQTTTDMQKPTQSMHQENLTGHCREPPPWKHEDSKRIYHFVEGQSVHYECIPGYKALQRGPAISICKMKCGKTGWTQPQLTCVDEREHHRFLASEESQGSRNSSPESETSCPITTTDFPQPTETTAMTETFVLTMEYKGCKPCICTVPEVSSVFIFPPKPKDVLTITLTPKVTCVVVDISKDDPEVQFSWFVDDVEVHTAQTQPREEQFNSTFRSVSELPIMHQDWLNGKEFKCRVNSAAFPAPIEKTISKTKGRPKAPQVYTIPPPKEQMAKDKVSLTCMITDFFPEDITVEWQWNGQPAENYKNTQPIMDTDGSYFVYSKLNVQKSNWEAGNTFTCSVLHEGLHNHHTEKSLSHSPGK
- EC50 [2, 9]: 0.013 nM
- EC50 ([2]; uncleaved, read-out: −MMP EC50): 0.66 nM
- heparin binding (qualitative) ([3]; pH 6 vs pH 7.5, plate assay): bind heparin in dose-dependent manner and with higher affinity than Construct B; also recorded: preferentially binds heparin at acidic pH
- circulating drug levels compared with Construct B (40 mg/kg) ([4]; Construct CC 20 mg/kg): roughly similar
- drug levels in tumor relative to Construct B (40 mg/kg) ([5]; Construct CC 20 mg/kg, tumors 24 h after last dose): roughly 3 fold
- IL-2 levels in treated tumors compared to Construct B treated tumors [5]: elevated

B2: Construct II: SEQ ID NO 819: m IL2-LHERHLNNN-MMPcs1-2x(G4S)-mIL2Ra(1-215)-mu IgG1 Fc (protein)
chain: B1 chain with G150S, H151L, P153E, H154R, G155H, H156L, H157N, P158N, H159N
- EC50 [2, 9]: 0.009 nM
- EC50 ([2]; uncleaved, read-out: −MMP EC50): 0.489 nM
- TGI (%) D 15 [6]: 57% and 57.68%
- TGI (%) D 20 [6]: 68.52%
- drug levels in serum relative to Construct B [4]: ~3 fold
- Bound [7]: 2277
- Normalized [7]: 1.4
- Bound (% input) [7]: 0.4%
- binding to collagen-agarose beads vs control agarose beads [7]: specifically bound by collagen-agarose beads
- IL-2 levels in treated tumors compared to Construct B treated tumors [5]: elevated

B3: Construct GG: SEQ ID NO 817: m IL2-SGG-KLWVLPK-MMPcs1-2x(G4S)-mIL2Ra(1-215)-mu IgG1 Fc (protein)
chain: B1 chain with G150S, H151G, H152G, P153K, H154L, G155W, H156V, H157L, H159K
- EC50 [2, 9]: 0.0072 nM
- EC50 ([2]; uncleaved, read-out: −MMP EC50): 0.14 nM
- TGI (%) D 15 [6]: 57% and 57.18%
- TGI (%) D 20 [6]: 64.70%
- drug levels in serum relative to Construct B [4]: roughly 5 fold
- Bound [7]: 5191
- Normalized [7]: 2.5
- Bound (% input) [7]: 0.7%
- binding to collagen-agarose beads vs control agarose beads [7]: specifically bound by collagen-agarose beads
- drug level in tumor, comparison in 10 mg/kg dosing cohort ([5]; 10 mg/kg, tumors 24 h after last dose): highest levels
- IL-2 levels in treated tumors compared to Construct B treated tumors [5]: elevated
